Test results published in US20250230251A1 (Bristol-Myers Squibb, published 2025).
Substitutions are numbered along the chain they refer to. Blank lines part the entries; values can stand above or below the binder they belong to.

Key:
[1] = molecular target: T1, huIL-18Rβ-HisAvi (human, UniProt O95256 20-356, biotinylated in the Octet blocking assay); experiment: SPR T200, mAb on anti-hFc, 37C, pH 5
T1 construct: Soluble analyte in all SPR runs; captured on streptavidin sensors in the Octet assay; also called human IL-18Rβ; human IL-18Rβ-Avi-His
T1 sequence: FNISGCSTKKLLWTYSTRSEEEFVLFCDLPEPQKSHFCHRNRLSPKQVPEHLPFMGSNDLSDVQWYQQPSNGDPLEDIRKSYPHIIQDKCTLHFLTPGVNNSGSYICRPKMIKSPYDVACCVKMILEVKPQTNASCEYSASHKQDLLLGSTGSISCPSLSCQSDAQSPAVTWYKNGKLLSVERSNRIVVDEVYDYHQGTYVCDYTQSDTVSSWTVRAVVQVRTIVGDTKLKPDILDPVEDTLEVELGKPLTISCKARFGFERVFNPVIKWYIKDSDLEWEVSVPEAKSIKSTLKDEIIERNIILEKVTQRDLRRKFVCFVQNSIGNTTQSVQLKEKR

[2] = molecular target: the molecule itself; experiment: clone self-interaction BLI, antibody on AHQ sensor against 1 µM of the same antibody
[3] = molecular target: T1, huIL-18Rβ-HisAvi; experiment: SPR T200, mAb on anti-hFc, 37C, pH 7.4
[4] = molecular target: T2, cyIL-18Rβ-HisAvi (cynomolgus monkey); experiment: SPR T200, mAb on anti-hFc, 37C, pH 6
T2 construct: Soluble analyte in SPR; also called cyno IL-18Rβ; cynomolgus monkey IL-18Rβ
T2 chain: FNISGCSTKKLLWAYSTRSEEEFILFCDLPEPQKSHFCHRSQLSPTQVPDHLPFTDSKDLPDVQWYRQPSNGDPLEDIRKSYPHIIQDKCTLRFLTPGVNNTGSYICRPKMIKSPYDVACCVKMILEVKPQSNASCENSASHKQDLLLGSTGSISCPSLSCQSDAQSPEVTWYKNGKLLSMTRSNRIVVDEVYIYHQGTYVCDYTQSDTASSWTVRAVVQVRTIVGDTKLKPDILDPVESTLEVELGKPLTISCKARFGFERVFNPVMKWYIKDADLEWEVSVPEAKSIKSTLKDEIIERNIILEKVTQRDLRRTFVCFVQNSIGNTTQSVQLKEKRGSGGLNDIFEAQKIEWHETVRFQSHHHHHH

[5] = molecular target: T1, huIL-18Rβ-HisAvi; experiment: SPR T200, mAb on anti-hFc, 37C, pH 6
[6] = molecular target: T2, cyIL-18Rβ-HisAvi; experiment: SPR T200, mAb on anti-hFc, 37C, pH 7.4
[7] = molecular target: T1, huIL-18Rβ-HisAvi; experiment: SPR T200, mAb on anti-hFc, 37C, pH 7.4; remark: listed apart in the source
[8] = molecular target: T3, human IL-18Rβ on cells (human, UniProt O95256 20-599); experiment: cell-based or functional assay
T3 sequence: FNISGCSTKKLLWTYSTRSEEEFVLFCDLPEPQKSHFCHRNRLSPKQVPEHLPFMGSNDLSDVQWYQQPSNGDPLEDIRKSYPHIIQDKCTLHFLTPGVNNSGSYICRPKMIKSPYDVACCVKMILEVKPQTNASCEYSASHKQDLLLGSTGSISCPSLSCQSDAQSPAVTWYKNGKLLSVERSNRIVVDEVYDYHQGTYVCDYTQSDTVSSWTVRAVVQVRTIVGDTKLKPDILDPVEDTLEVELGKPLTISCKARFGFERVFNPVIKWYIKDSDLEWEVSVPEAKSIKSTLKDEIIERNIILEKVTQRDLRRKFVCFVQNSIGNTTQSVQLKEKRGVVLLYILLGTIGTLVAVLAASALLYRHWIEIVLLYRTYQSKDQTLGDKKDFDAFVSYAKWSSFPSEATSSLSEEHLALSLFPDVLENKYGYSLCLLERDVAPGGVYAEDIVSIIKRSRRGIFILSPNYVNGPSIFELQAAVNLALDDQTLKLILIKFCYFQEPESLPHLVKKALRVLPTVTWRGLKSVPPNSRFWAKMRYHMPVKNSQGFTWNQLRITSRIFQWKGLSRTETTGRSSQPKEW

[9] = molecular target: T1, huIL-18Rβ-HisAvi; experiment: SPR T200, pH 5 against pH 7.4
[10] = molecular target: T2, cyIL-18Rβ-HisAvi; experiment: SPR T200, mAb on anti-hFc, 37C, pH 7.4
[11] = molecular target: T1, huIL-18Rβ-HisAvi; experiment: SPR T200, mAb on anti-hFc, 37C, pH 7.4; remark: listed apart in the source
[12] = molecular target: T1, huIL-18Rβ-HisAvi; experiment: SPR screen, 1:1 fit
[13] = molecular target: T1, huIL-18Rβ-HisAvi; experiment: SPR T200, pH 7.4; sample stored at pH 8, 4 w 4C
[14] = molecular target: T1, huIL-18Rβ-HisAvi; experiment: SPR T200, pH 7.4; sample stored at pH 6, T0

Kd [1]: 2.5 nM | koff [1]: 0.0004 s⁻¹ | kon [1]: 160000 M⁻¹ s⁻¹ | Kd [3]: 2.3 nM | koff [3]: 0.0005 s⁻¹ | kon [3]: 220000 M⁻¹ s⁻¹ | Kd [4]: 11 nM | koff [4]: 0.002 s⁻¹ | kon [4]: 180000 M⁻¹ s⁻¹ | Kd [5]: 0.65 nM | koff [5]: 0.00031 s⁻¹ | kon [5]: 480000 M⁻¹ s⁻¹ | Kd [6]: 19 nM | koff [6]: 0.0029 s⁻¹ | kon [6]: 150000 M⁻¹ s⁻¹ | Kd [7]: 1.8 nM | koff [7]: 0.00043 s⁻¹ | kon [7]: 240000 M⁻¹ s⁻¹ | IC50, LPS+IL-12 dependent IFNg production, human whole blood [8]: 0.3 nM | y-max, LPS+IL-12 dependent IFNg production, human whole blood [8]: 98% | KD ratio (KD pH 5/KD pH 7) [9]: 1.09 | kd ratio (kd pH 5/kd pH 7) [9]: 0.79 | Kd [10]: 19 nM | koff [10]: 0.0029 s⁻¹ | kon [10]: 150000 M⁻¹ s⁻¹ | Kd [11]: 1.8 nM | koff [11]: 0.00043 s⁻¹ | kon [11]: 240000 M⁻¹ s⁻¹ | Kd [12]: 1.4 nM | Kd [13]: 1.3 nM | koff [13]: 0.00034 s⁻¹ | kon [13]: 270000 M⁻¹ s⁻¹ | Kd [14]: 1.6 nM | koff [14]: 0.00038 s⁻¹ | kon [14]: 240000 M⁻¹ s⁻¹
B1: P21 (antibody, human IgG1, kappa, V domains shown)
VH: QVQLQQSGPGLVKPSETLSLTCTVSGGSISNYYWTWIRQPPGKGLEWIGYISDSGSTNYNPSLKSRVTISVDTSKNQFSLKLSSVTAADTAVYYCARETIVVRGFYFYVMDVWGQGTTVTVSS
VL: AIQLTQSPSSLSASVGDRVTITCRASQGISSALAWYQQRPGKAPKLLIYDASNWESGVPSRFSGSGSGTDFTLTISSLQPEDFATYYCQQFNSYPWTFGQGTKVEIKR
notes: Human IgG
Average CSI-BLI ΔResponse [2]: -0.03 nm

apparent Kd (pooled screen) [1]: 2 nM | apparent koff (pooled screen) [1]: 0.00021 s⁻¹ | apparent kon (pooled screen) [1]: 100000 M⁻¹ s⁻¹ | apparent Kd (pooled screen) [3]: 1.8 nM | apparent koff (pooled screen) [3]: 0.00032 s⁻¹ | apparent kon (pooled screen) [3]: 180000 M⁻¹ s⁻¹ | Kd [4]: 1.6 nM | koff [4]: 0.00028 s⁻¹ | kon [4]: 180000 M⁻¹ s⁻¹ | apparent Kd (pooled screen) [5]: 0.43 nM | apparent koff (pooled screen) [5]: 0.00016 s⁻¹ | apparent kon (pooled screen) [5]: 380000 M⁻¹ s⁻¹ | Kd [6]: 1.4 nM | koff [6]: 0.00024 s⁻¹ | kon [6]: 180000 M⁻¹ s⁻¹ | apparent Kd (pooled screen) [7]: 0.51 nM | apparent koff (pooled screen) [7]: 0.00017 s⁻¹ | IC50, LPS+IL-12 dependent IFNg production, human whole blood [8]: 0.7 nM | y-max, LPS+IL-12 dependent IFNg production, human whole blood [8]: 98% | KD ratio (KD pH 5/KD pH 7) [9]: 1.08 | kd ratio (kd pH 5/kd pH 7) [9]: 0.63 | Kd [10]: 1.4 nM | koff [10]: 0.00024 s⁻¹ | kon [10]: 180000 M⁻¹ s⁻¹ | apparent Kd (pooled screen) [11]: 0.51 nM | apparent koff (pooled screen) [11]: 0.00017 s⁻¹ | apparent kon (pooled screen) [11]: 330000 M⁻¹ s⁻¹ | apparent Kd (pooled screen) [12]: 1.4 nM | apparent Kd (pooled screen) [13]: 1.5 nM | apparent koff (pooled screen) [13]: 0.00035 s⁻¹ | apparent kon (pooled screen) [13]: 230000 M⁻¹ s⁻¹ | apparent Kd (pooled screen) [14]: 1.4 nM | apparent koff (pooled screen) [14]: 0.00033 s⁻¹ | apparent kon (pooled screen) [14]: 230000 M⁻¹ s⁻¹
B2: P20 (antibody, human IgG1, kappa)
heavy: QVQLQQSGPGLVKPSETLSLTCTVSGGSINNYYWSWIRQPPGKGLEWIGYIFYSGTTNYNPSLKSRVTISVDTSKNQFSLKLSSVTAADTAVYYCARDVGIAARNSYYYVMDVWGQGTTVTVSSASTKGPSVFPLAPSSKSTSGGTAALGCLVKDYFPEPVTVSWNSGALTSGVHTFPAVLQSSGLYSLSSVVTVPSSSLGTQTYICNVNHKPSNTKVDKRVEPKSCDKTHTCPPCPAPEAEGAPSVFLFPPKPKDTLMISRTPEVTCVVVDVSHEDPEVKFNWYVDGVEVHNAKTKPREEQYNSTYRVVSVLTVLHQDWLNGKEYKCKVSNKALPAPIEKTISKAKGQPREPQVYTLPPSREEMTKNQVSLTCLVKGFYPSDIAVEWESNGQPENNYKTTPPVLDSDGSFFLYSKLTVDKSRWQQGNVFSCSVMHEALHNHYTQKSLSLSPG
light: AIQLTQSPSSLSASVGDRVTITCRASQGISSALAWYQQKPGKAPKFLIYDASSLESGVPSRFSGSGSGTDFTLTISSLQPEDFATYYCQQFNSYPITFGQGTRLEIKRTVAAPSVFIFPPSDEQLKSGTASVVCLLNNFYPREAKVQWKVDNALQSGNSQESVTEQDSKDSTYSLSSTLTLSKADYEKHKVYACEVTHQGLSSPVTKSFNRGEC
notes: Human IgG
Average CSI-BLI ΔResponse [2]: 0.02 nm

Kd [4]: 1.7 nM | koff [4]: 0.00028 s⁻¹ | kon [4]: 160000 M⁻¹ s⁻¹ | Kd [5]: 0.45 nM | koff [5]: 0.00015 s⁻¹ | kon [5]: 340000 M⁻¹ s⁻¹ | Kd [6]: 1.4 nM | koff [6]: 0.00028 s⁻¹ | kon [6]: 200000 M⁻¹ s⁻¹ | Kd [7]: 0.43 nM | koff [7]: 0.00015 s⁻¹ | kon [7]: 340000 M⁻¹ s⁻¹
B3: P20-V1 (antibody, human IgG1, kappa, V domains shown)
VH: QVQLQESGPGLVKPSETLSLTCTVSGGSINNYYWSWIRQPPGKGLEWIGYIFYSGTTNYNPSLKSRVTISVDTSKNQFSLKLSSVTAADTAVYYCARDVGIAARNSYYYVMDVWGQGTTVTVSS
VL: B1 VL with R39K, L46F, D50E, N53S, W54L, W96I, K103R, V104L
notes: Variant of P20
